Measurements taken from article doi:10.1101/2021.03.11.435015.

Target: Myc-PUM1-R1147W (human) (UniProt Q14671)
Assay: co-IP

GST-CNOT1 (from UniProt A5YKK6 1-2376) (natural protein)
percent by which the interaction is diminished against Myc-PUM1-WT: 35%
